Measurements published in patent publication US12202866B2, “Therapeutic nanoconjugates and uses thereof” (UNIVERSITAT AUTÒNOMA DE BARCELONA (UAB), priority 2017, dated 2025).

Legend:
[1] = test system: CXCR4^+ HeLa human cervical carcinoma cell line; assay: Internalization in CXCR4+ HeLa cells (flow cytometry, AMD3100 competition); assay type: cell-based; conditions: 1 hour exposure, 1 μM
Protocol: To assess specificity for CXCR4 receptor mediated internalization, competition studies incubating CXCR4^+ HeLa cells with the CXCR4 antagonist AMD3100 (octahydrochloride hydrate, Sigma-Aldrich) were performed in a 1:10 (Protein:antagonist) molar ratio for 1 h before exposure to the nanoconjugate, as previously described for the T22-GFP-H6.
Nuclei were labeled with Hoechst 33342 (Life Technologies) and plasma membranes CellMask™ Deep Red (Life Technologies).

[2] = Biodistribution and toxicity in normal organs, bone marrow and circulating blood cells; assay type: in vivo, mouse
Protocol: At necropsy, bone marrow was extracted and registered ex vivo in the IVIS® 200-Spectrum equipment. Mouse blood was collected by punction in the maxillary plexus. The erythrocytes, leucocytes and platelets were isolated by the Ficoll density gradient method using the standard protocol. Further, pellets were obtained by centrifugation of the isolated cell extracts at 600 g, 10 min and then recorded to measure fluorescence using IVIS® 200-Spectrum.
In addition, two independent observers evaluated the possible histopathological alterations observed in H&E stained non-tumor tissue samples, searching for signs of toxicity.

[3] = test system: CXCR4^+ cancer cells in SC SW1417 CRC tumor; assay: CXCR4+ cancer cell fraction in tumor tissue along time after single dose (anti-CXCR4 IHC); assay type: in vivo, mouse
Protocol: (§1) The SC SW1417 mouse model was used to determine the capacity of the nanoconjugate to induce DNA damage and apoptosis in tumor tissue, as well as the kinetics of CXCR4 expression in the membrane of tumor cells after treatment, regarding the fraction of CXCR4 expressing tumor cells and their intensity, since CXCR4^+ are the target cells for the nanoconjugate. […] The mice had been treated with equimolecular dosages of T22-GFP-H6, free oligo-FdU or Buffer, in which also were determined the levels of CXCR4 expression in tumor tissue at the different time points.

[4] = test system: subcutaneous CXCR4^+ SW1417 CRC tumor; assay: Tumor uptake and tumor cell internalization in subcutaneous CXCR4+ SW1417 CRC model; parameters: tumor uptake measured by fluorescence emission: dose or concentration left out as unconfirmed
Protocol: SC model was used to assess tumor uptake and nanoconjugate internalization and in vivo competition studies using co-administration of the CXCR4 antagonist AMD3100.
Two hours, 5 h and 24 h after the administration, the mouse was euthanized to resect the tumor and register ex vivo the intensity of the green fluorescence emitted by the nanoconjugated that biodistributed to tumor tissue using the IVIS® 200-Spectrum (Perkin Elmer, MA, USA). Following, tumor tissue samples were taken, processed and performed immunohistochemistry (IHC) to determine the presence or absence of the corresponding nanoconjugate into cytosol of tumor cells using an anti-GFP antibody (1:300; Santa-Cruz Biotechnology, CA, USA). […] Apoptosis was assessed determining nuclear condensation with Hoechst staining of tumor tissue sections and counting the number of condensed or defragmented nuclei in five high-power magnification fields in different sections for each tumor using the Olympus DP73 digital camera and the CellD Imaging 3.3 programme (Olympus, Tokyo, Japan).

[5] = test system: subcutaneous CXCR4^+ SW1417 CRC tumor; assay: Induction of DNA double strand breaks and apoptosis in tumor tissue, SC SW1417 model; assay type: in vivo, mouse
Protocol: as §1

Q: For “T22-GFP-H6-FdU: nanoconjugate of T22-GFP-H6 protein nanoparticle covalently bound via maleimide linker to thiol-functionalized pentameric floxuridine oligonucleotide (oligo-FdU)”, which “internalization in HeLa cells” value [1] is on record?
A: CXCR4-dependent nanoconjugate internalization

Q: What about the “fluorescence emission in erythrocytes, leucocytes or platelets” value ([2]; 5 h after doses in the 10-100 μg range) of the same substance?
A: Lack of fluorescence emission

Q: What about the “fluorescence emission in spleen or bone marrow” value ([2]; 5 h after single injections, 10-100 μg range) of the same substance?
A: Lack of fluorescence emission

Q: And the “level of DSBs in liver (anti-gH2AX IHC)” value ([2]; 5 h after treatment)?
A: undetectable

Q: And the “apoptosis or histological alteration in bone marrow or liver” value ([2]; 24 h post-administration)?
A: not detected

Q: What about the mouse body weight ([2]; regression and prevention of metastases experiments) of the same substance?
A: lack of mouse body weight loss

Q: And the “CXCR4^+ CCF remaining in tumor tissue” value ([3]; 24 h after single dose)?
A: reduced

Q: What about the “CXCR4^+ CCF remaining in tumor tissue” value ([3]; 48 h after single dose) of the same substance?
A: undetectable

Q: What about the “tumor uptake measured by fluorescence emission” value ([4]; 5 h after injection, i.v.) of the same substance?
A: selective tumor uptake

Q: What about the “internalization into CXCR4^+ tumor cell cytosol by anti-GFP immunohistochemistry” value ([4]; single i.v. dose) of the same substance?
A: internalized

Q: What about the “number of apoptotic figures in tumor tissue (Hoechst nuclear condensation or defragmentation)” value ([5]; 24 h after injection) of the same substance?
A: 13.9±0.5

Q: And the “number of DSBs foci in tumors (anti-gH2AX IHC)” value ([5]; five hours after treatment)?
A: 22.8±1.4
